These results are taken from paper PMC5934295 (Neuron, 2018).

As usually defined, the stoichiometry N is the number of molecules, sites or subunits per partner or assembly.

B1: mouse CALHM3-GFP (natural protein, UniProt J3QMI4 1-347, looked up)
chain: MDRFRMLFQHLQSSSESVMNGICLLLAAVTVKIYSSLDFNCPCLERYNALYGLGLLLTPPLALFLCGLLVNRQSVLMVEEWRRPAGHRRKDLGIIRYMCSSVLQRALAAPLVWILLALLDGKCFVCAFSNSVDPEKFLDFANMTPRQVQLFLAKVPCKEDELVKNSPARKAVSRYLRCLSQAIGWSITLLVIVVAFLARCLRPCFDQTVFLQRRYWSNYMDLEQKLFDETCCEHARDFAHRCVLHFFANMQSELRALGLRRDPAGGIPESQESSEPPELREDRDSGNGKAHLRAISSREQVDQLLSTWYSSKPPLDLAASPRRWGPGLNHRAPIAAPGTKLCHQLNV
B2: CALHM3-mCherry (natural protein, mouse, UniProt J3QMI4 1-347, looked up)
chain: B1 chain
B3: mouse CALHM1-FLAG (natural protein, UniProt D3Z291 1-348, looked up)
chain: MDKFRMIFQFLQSNQESFMNGICGIMALASAQMYSAFDFNCPCLPGYNVVYSLGILLTPPLVLFLLGLVMNNNISMLAEEWKRPAGRRAKDPAVLRYMFCSMAQRALIAPVVWVAVTLLDGKCFLCAFCTAVPVATLGNGSLVPGLPAPELARLLARVPCPEIYDGNWLLAREVAVRYLRCISQALGWSFVLLTTLLAFVVRSVRPCFTQVAFLKSKYWSHYIDIERKLFDETCTEHAKAFAKVCIQQFFEAMNHDLELGHTHGVLATATATATATEAVQSPSDRTEEEREKLRGITDQGTMNRLLTSWHKCKPPLRLGQEAPLMSNGWAGGEPRPPRKEVATYFSKV

The data set “mouse CALHM1-FLAG” addresses B3. Put plainly: native gel or EMSA. Background: Mobility shift assays separate free from complexed probe on a gel.
Data set [1] concerns the molecule itself. The data set can be described thus: single-molecule photobleaching.
The data set “native gel or EMSA” deals with the molecule itself. The data set can be described thus: native gel or EMSA.

For B1, in the data set with mouse CALHM1-FLAG, the “stoichiometry N” value was ≥ 1 CALHM3 subunit per channel.
As to B2, in data set [1], the “stoichiometry N” value was found to be 6.
On to B3, for which the “stoichiometry N” value in the data set “native gel or EMSA” is about 6.
